Experimental data from paper PMC9213775 (iScience, 2022).

Molecular target: the molecule itself
Experiment: AUC

B1: UDS1-His6 (natural protein, Aspergillus nidulans, UniProt Q5B1I5 1-941, looked up)
chain: MNGFDFRSSQSSYGDPRHFSDASYGVPQPPPTKVLLDGYRDALGPANAEKSLYNSANPTSHPRRSIPPSANDPVAMYLLTETAMGDSVNYEILSVEEVEGLKKELRVLSNRMNAAKRKLALELKLRDAAMSLSRLHHKEEHDVDGSGRNEPNTDKTNEELVHINRKCEELSMDIWYSERKVQEIQKRLLEHTAGVLQLTHKGLKKNSKNGMPHTPESLSSSNTVDDFDDRSLYKASDPLDGPETYETRAPPPDNLAHDNSMQETERKLESMSSRLRDMLLQLDPDSEFSQIPQPSTSGDSFEPSAMIDAHLRYIENGISALGSLPKADMASQSLDPVSEQQLVEMRTQLLSIMENPGLPRAQTLPTAPDPTDSDLAKHLTFLSVGINGLESRVEKLLEQKSILTTQIQQQRELNSKSDAERDAKIADLIEQLAHLRKELELAEREGQQSKEDHDLTLKELEDVRRELLESRETHSSRDLGNSKNEAQQHAEAEIARLQSVIQEIQQEKDEHCEAHRRAEAEIDRLQAVIHQIQQEKDEHREAHERAEAETTRLQTIVEEVQQEKDEQHEAHGRAVAEVTRLQDIIQKIEQEKIERHEADERAEAEIVRLRDTIREIQQEKEEHHEARVRLEGEVARLQGVIGQLQESAESRESAEQQVAQLEETIHQIRHDADIRIKEATDSRAQADAKIAQLEGAMNEVRESLESQLKEATEARNNAEENSTRLQKELTELERDVVRAQTELTMVKAELDGAYGTRAQRAAEAAADPALFHELDELKARNFEMAEELAALKAGKPGSGDVHNRVETLERELRETVDDYEAMTKASIEFEKERERFESMIDSLRDRCEQLETQLNEERISWMGANNSASSMGRDGPYETTSTMVLKNEFKKMMRDTRAENMKILKAEQEERRKLEAILRNLKREQANLSGKSNISRTVTAS
stoichiometry N: 2
